According to patent US20260209358A1:

T1: CD37 on CD37+ target tumor cells (Daudi or Ramos cells) (UniProt P11049)
T1 sequence (looked up): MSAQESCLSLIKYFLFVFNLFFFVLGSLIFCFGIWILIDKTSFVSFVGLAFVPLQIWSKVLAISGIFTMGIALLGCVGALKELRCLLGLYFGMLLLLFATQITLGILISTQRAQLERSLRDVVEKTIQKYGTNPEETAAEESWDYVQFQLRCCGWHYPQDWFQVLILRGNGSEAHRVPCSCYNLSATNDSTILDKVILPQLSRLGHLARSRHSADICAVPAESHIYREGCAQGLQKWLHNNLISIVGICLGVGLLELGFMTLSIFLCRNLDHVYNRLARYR


Assays:
[1] = target: T1, CD37 on CD37+ target tumor cells (Daudi or Ramos cells); test: cell-based or functional assay
[2] = target: hNKp46-His (extracellular domain of hNKp46 with a C-terminal polyhistidine tag) (human) (UniProt O76036); test: BLI (Octet RED96), hNKp46-His on Ni-NTA biosensors, MB in solution, 1:1 fit
UniProt O76036, sequence (O76036 22-258): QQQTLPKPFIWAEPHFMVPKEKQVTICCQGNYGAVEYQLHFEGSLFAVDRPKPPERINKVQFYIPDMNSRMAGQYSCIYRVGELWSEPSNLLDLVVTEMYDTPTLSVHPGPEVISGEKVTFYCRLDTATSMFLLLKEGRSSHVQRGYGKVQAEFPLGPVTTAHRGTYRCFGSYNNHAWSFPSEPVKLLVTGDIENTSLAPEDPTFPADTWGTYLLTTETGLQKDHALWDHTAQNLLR

| Binder | EC50 of ADCC (calcein release) on Ramos cells with primary human NK cells [1] [pM] | EC50 of ADCP on Ramos cells with THP-1 effector cells [1] [pM] | Kd [2] [pM] | koff [2] [s⁻¹] | kon [2] [M⁻¹ s⁻¹] | EC50 of apoptosis (Annexin-V+ cells, flow cytometry) on Daudi cells [1] [pM] | EC50 of CDC (PI+ cells) on Daudi cells with normal human serum [1] [pM] |
| --- | --- | --- | --- | --- | --- | --- | --- |
| 016-H5L2 IgG (parent CD37 IgG) (antibody, V domains shown) VH: EVQLVESGGGLVQPGGSLRLSCAASGFSLSNYNMGWVRQAPGKGLEWVSVIDASGTTYYATWAKGRFTISRDNSKNTLYLQMNSLRAEDTATYYCARELLYFGSSYYDLWGQGTLVTVSS VL: DVVMTQSPSTLSASVGDRVTITCQASQNIDSNLAWYQQKPGKAPKFLIYYASNLPFGVPSRFKGSGSGTEFTLTISSLQPDDFATYYCQSADVGSTYVAAFGGGTKVEIK | 8.34 | 21.4 | – | – | – | – | – |
| 016-H5L2 × NKp46-1 H1L1 CD37/NKp46 bispecific MB (protein, part only; not given: Fab constants, linkers, ferritin, scFc, not shown: another chain or arm of the molecule; large carriers; small tags and cut ends, The variable domains sit in single-chain Fabs fused to human ferritin light chain. The NKp46 chain also carries a C-terminal scFc. The chains form a self-assembled multivalent nanocage.) VH 1: EVQLVESGGGLVQPGGSLRLSCAASGFSLSNYNMGWVRQAPGKGLEWVSVIDASGTTYYATWAKGRFTISRDNSKNTLYLQMNSLRAEDTATYYCARELLYFGSSYYDLWGQGTLVTVSS VL 1: DVVMTQSPSTLSASVGDRVTITCQASQNIDSNLAWYQQKPGKAPKFLIYYASNLPFGVPSRFKGSGSGTEFTLTISSLQPDDFATYYCQSADVGSTYVAAFGGGTKVEIK VH 2: QVQLVQSGAEVKKPGSSVKVSCKASGYTFSDYVINWVRQAPGQGLEWMGEIYPGSGTNYYNEKFKAKATITADKSTSTAYMELSSLRSEDTAVYYCARRGRYGLYAMDYWGQGTTVTVSS VL 2: DIQMTQSPSSLSASVGDRVTITCRASQDISNYLNWYQQKPGKAPKLLIYYTSRLHSGVPSRFSGSGSGTDFTFTISSLQPEDIATYFCQQGNTRPWTFGGGTKVEIK | 1.2 | – | < 1 | < 1e-07 | 2.15e+06 | 102 | – |
| 016-H5L2 × NKp46-4 H1L2 CD37/NKp46 bispecific MB (protein, part only; not given: Fab constants, linkers, ferritin, scFc, not shown: another chain or arm of the molecule; large carriers; small tags and cut ends, The variable domains sit in single-chain Fabs fused to human ferritin light chain. The NKp46 chain also carries a C-terminal scFc. The chains form a self-assembled multivalent nanocage.) VH 1: EVQLVESGGGLVQPGGSLRLSCAASGFSLSNYNMGWVRQAPGKGLEWVSVIDASGTTYYATWAKGRFTISRDNSKNTLYLQMNSLRAEDTATYYCARELLYFGSSYYDLWGQGTLVTVSS VL 1: DVVMTQSPSTLSASVGDRVTITCQASQNIDSNLAWYQQKPGKAPKFLIYYASNLPFGVPSRFKGSGSGTEFTLTISSLQPDDFATYYCQSADVGSTYVAAFGGGTKVEIK VH 2: QVQLVQSGAEVKKPGASVKVSCKASGYTFTSFTMHWVRQAPGQGLEWIGYINPSSGYTEYNQKFKDRVTITADKSTSTAYMELSSLRSEDTAVYYCVRGSSRGFDYWGQGTLVTVSS VL 2: DIQMTQSPSSLSASVGDRVTITCRASENIYSNLAWFQQKPGKAPKLLVYAATNLADGVPSRFSGSGSGTDYTLTISSLQPEDFATYYCQHFWGTPRTFGGGTKVEIK | 3.73 | – | < 1 | < 1e-07 | 1.67e+06 | 142 | – |
| 016-H5L2 × NKp46-2 H1L1 CD37/NKp46 bispecific MB (protein, part only; not given: Fab constants, linkers, ferritin, scFc, not shown: another chain or arm of the molecule; large carriers; small tags and cut ends, The variable domains sit in single-chain Fabs fused to human ferritin light chain. The NKp46 chain also carries a C-terminal scFc. The chains form a self-assembled multivalent nanocage.) VH 1: EVQLVESGGGLVQPGGSLRLSCAASGFSLSNYNMGWVRQAPGKGLEWVSVIDASGTTYYATWAKGRFTISRDNSKNTLYLQMNSLRAEDTATYYCARELLYFGSSYYDLWGQGTLVTVSS VL 1: DVVMTQSPSTLSASVGDRVTITCQASQNIDSNLAWYQQKPGKAPKFLIYYASNLPFGVPSRFKGSGSGTEFTLTISSLQPDDFATYYCQSADVGSTYVAAFGGGTKVEIK VH 2: QVQLQESGPGLVKPSQTLSLTCTVSGYSISSDYAWNWIRQPPGKGLEWIGYITYSGSTSYNPSLESRVTISRDTSKNQFSLKLSSVTAADTAVYYCARGGYYGSSWGVFAYWGQGTLVTVSS VL 2: DIQMTQSPSSLSASVGDRVTITCRVSENIYSYLAWYQQKPGKAPKLLVYNAKTLAEGVPSRFSGSGSGTDFTLTISSLQPEDFATYYCQHHYGTPWTFGGGTKVEIK | 2.91 | – | < 1 | < 1e-07 | 1.25e+06 | – | – |
| Naratuximab × NKp46 09 CD37/NKp46 bispecific MB (protein, part only; not given: Fab constants, linkers, ferritin, scFc, not shown: another chain or arm of the molecule; large carriers; small tags and cut ends) VH 1: EVQLQQSGAEVKKPGSSVKVSCKTSGYTFTEYSMHWVRQAPGKSLEWFGGISPNSGGTSYNQKFKGRATLTVDKSSSTAYMELSSLRSEDTAVYYCARRDFHSSFDYWGQGTTVTVSS VL 1: DIVMTQSPATLSLSPGERATLSCRASQSISDYLHWFQQKPHESPRLLIKYASQSISGIPARFSGSGSGSDFTLTISSLEPEDFAVYYCQNGHSFPLTFGPGTKVDIK VH 2: QVQVQESGPGLVAPSQTLSITCTVSGFSLTTSGVSWVRQPPGKGLEWLGVIWGDGSTNYHPSLKSRLSIKKDHSKSQVFLKLNSLTAADTATYYCAKGGYSLAHWGQGTLVTVSS VL 2: DIQMTQSPSSLSVSVGERVTITCRASENIRSNLAWYQQKPGKSPKLLVNVATNLADGVPSRFSGSGSGTDYSLKINSLQPEDFGTYYCQHYWGTTWTFGQGTKLEIK | 0.843 | – | < 1 | < 1e-07 | 1.63e+06 | – | – |
| Naratuximab × NKp46-4 H1L2 CD37/NKp46 bispecific MB (protein, part only; not given: Fab constants, linkers, ferritin, scFc, not shown: another chain or arm of the molecule; large carriers; small tags and cut ends) VH 1: QVQLVQSGAEVKKPGASVKVSCKASGYTFTSFTMHWVRQAPGQGLEWIGYINPSSGYTEYNQKFKDRVTITADKSTSTAYMELSSLRSEDTAVYYCVRGSSRGFDYWGQGTLVTVSS VL 1: DIQMTQSPSSLSASVGDRVTITCRASENIYSNLAWFQQKPGKAPKLLVYAATNLADGVPSRFSGSGSGTDYTLTISSLQPEDFATYYCQHFWGTPRTFGGGTKVEIK VH 2: QVQVQESGPGLVAPSQTLSITCTVSGFSLTTSGVSWVRQPPGKGLEWLGVIWGDGSTNYHPSLKSRLSIKKDHSKSQVFLKLNSLTAADTATYYCAKGGYSLAHWGQGTLVTVSS VL 2: DIQMTQSPSSLSVSVGERVTITCRASENIRSNLAWYQQKPGKSPKLLVNVATNLADGVPSRFSGSGSGTDYSLKINSLQPEDFGTYYCQHYWGTTWTFGQGTKLEIK | 0.777 | – | 17.5 | 3.42e-05 | 1.96e+06 | 73 | – |

The remaining lines, values ahead:

| EC50 of ADCC (calcein release) on Ramos cells with primary human NK cells [1] [pM] | EC50 of ADCP on Ramos cells with THP-1 effector cells [1] [pM] | Kd [2] [pM] | koff [2] [s⁻¹] | kon [2] [M⁻¹ s⁻¹] | EC50 of apoptosis (Annexin-V+ cells, flow cytometry) on Daudi cells [1] [pM] | EC50 of CDC (PI+ cells) on Daudi cells with normal human serum [1] [pM] | Binder |
| --- | --- | --- | --- | --- | --- | --- | --- |
| 2.72 | – | < 1 | < 1e-07 | 1.06e+06 | – | – | 016-H5L2 × NKp46 09 CD37/NKp46 bispecific MB (protein, part only; not given: Fab constants, linkers, ferritin, scFc, not shown: another chain or arm of the molecule; large carriers; small tags and cut ends, The variable domains sit in single-chain Fabs fused to human ferritin light chain. The NKp46 chain also carries a C-terminal scFc. The chains form a self-assembled multivalent nanocage.) VH 1: EVQLVESGGGLVQPGGSLRLSCAASGFSLSNYNMGWVRQAPGKGLEWVSVIDASGTTYYATWAKGRFTISRDNSKNTLYLQMNSLRAEDTATYYCARELLYFGSSYYDLWGQGTLVTVSS VL 1: DVVMTQSPSTLSASVGDRVTITCQASQNIDSNLAWYQQKPGKAPKFLIYYASNLPFGVPSRFKGSGSGTEFTLTISSLQPDDFATYYCQSADVGSTYVAAFGGGTKVEIK VH 2: EVQLQQSGAEVKKPGSSVKVSCKTSGYTFTEYSMHWVRQAPGKSLEWFGGISPNSGGTSYNQKFKGRATLTVDKSSSTAYMELSSLRSEDTAVYYCARRDFHSSFDYWGQGTTVTVSS VL 2: DIVMTQSPATLSLSPGERATLSCRASQSISDYLHWFQQKPHESPRLLIKYASQSISGIPARFSGSGSGSDFTLTISSLEPEDFAVYYCQNGHSFPLTFGPGTKVDIK |
| 5.97 | 37.4 | – | – | – | – | 450 | Naratuximab IgG (parent CD37 IgG) (antibody, V domains shown) VH: QVQVQESGPGLVAPSQTLSITCTVSGFSLTTSGVSWVRQPPGKGLEWLGVIWGDGSTNYHPSLKSRLSIKKDHSKSQVFLKLNSLTAADTATYYCAKGGYSLAHWGQGTLVTVSS VL: DIQMTQSPSSLSVSVGERVTITCRASENIRSNLAWYQQKPGKSPKLLVNVATNLADGVPSRFSGSGSGTDYSLKINSLQPEDFGTYYCQHYWGTTWTFGQGTKLEIKR |
| 0.374 | – | < 1 | < 1e-07 | 2.2e+06 | 32 | – | Naratuximab × NKp46-2 H1L1 CD37/NKp46 bispecific MB (protein, part only; not given: Fab constants, linkers, ferritin, scFc, not shown: another chain or arm of the molecule; large carriers; small tags and cut ends) VH 1: QVQLQESGPGLVKPSQTLSLTCTVSGYSISSDYAWNWIRQPPGKGLEWIGYITYSGSTSYNPSLESRVTISRDTSKNQFSLKLSSVTAADTAVYYCARGGYYGSSWGVFAYWGQGTLVTVSS VL 1: DIQMTQSPSSLSASVGDRVTITCRVSENIYSYLAWYQQKPGKAPKLLVYNAKTLAEGVPSRFSGSGSGTDFTLTISSLQPEDFATYYCQHHYGTPWTFGGGTKVEIK VH 2: QVQVQESGPGLVAPSQTLSITCTVSGFSLTTSGVSWVRQPPGKGLEWLGVIWGDGSTNYHPSLKSRLSIKKDHSKSQVFLKLNSLTAADTATYYCAKGGYSLAHWGQGTLVTVSS VL 2: DIQMTQSPSSLSVSVGERVTITCRASENIRSNLAWYQQKPGKSPKLLVNVATNLADGVPSRFSGSGSGTDYSLKINSLQPEDFGTYYCQHYWGTTWTFGQGTKLEIK |
| 0.316 | – | < 1 | < 1e-07 | 3.65e+06 | 54 | – | Naratuximab × NKp46-1 H1L1 CD37/NKp46 bispecific MB (protein, part only; not given: Fab constants, linkers, ferritin, scFc, not shown: another chain or arm of the molecule; large carriers; small tags and cut ends) VH 1: QVQLVQSGAEVKKPGSSVKVSCKASGYTFSDYVINWVRQAPGQGLEWMGEIYPGSGTNYYNEKFKAKATITADKSTSTAYMELSSLRSEDTAVYYCARRGRYGLYAMDYWGQGTTVTVSS VL 1: DIQMTQSPSSLSASVGDRVTITCRASQDISNYLNWYQQKPGKAPKLLIYYTSRLHSGVPSRFSGSGSGTDFTFTISSLQPEDIATYFCQQGNTRPWTFGGGTKVEIK VH 2: QVQVQESGPGLVAPSQTLSITCTVSGFSLTTSGVSWVRQPPGKGLEWLGVIWGDGSTNYHPSLKSRLSIKKDHSKSQVFLKLNSLTAADTATYYCAKGGYSLAHWGQGTLVTVSS VL 2: DIQMTQSPSSLSVSVGERVTITCRASENIRSNLAWYQQKPGKSPKLLVNVATNLADGVPSRFSGSGSGTDYSLKINSLQPEDFGTYYCQHYWGTTWTFGQGTKLEIK |
